Consider 8 substances from patent publication US20240255522A1.

The target of assay [1] is MHCII (DR). The experiment in a line: competition.
For assay [2], the target named is MHCII (DR). As to the kind of experiment: competition ELISA. (In general: In an ELISA, binding on a coated surface is turned into a signal by an enzyme label.)
Assay [3] has as its target HLA-DRB1*01:01 MHCII molecule (human). The experiment in a line: competition ELISA; 25 nM huCLIP-bio.
The target is the same in assay [4]. The experiment in a line: competition ELISA; 50 nM, pp65 reference.
Assay [5] shares this target. The experiment in a line: competition ELISA; 50 nM huCLIP-bio.
Assay [6] shares this target. The experiment in a line: competition ELISA; 25 nM, pp65 reference.

The substance LASV RNAP showed an IC50 with MHCII (DR) [1] of 517 nM.

Consider LCMV NP (201-215), for which the IC50 with MHCII (DR) [1] turned out to be 1220 nM.

LCMV RNAP showed an IC50 in the assay with MHCII (DR) [1] of 287 nM.

In the assay with MHCII (DR) [2], MOG (35-55) came in with an IC50 of 2050 nM.

As for OVA (323-339), in the assay with MHCII (DR) [2], the half-maximal inhibitory concentration (IC50) worked out at 10700 nM.

In turn, VETF (275-289) had a 50% inhibitory concentration (IC50) with MHCII (DR) [2] of 983 nM. This IC50 is about 11-fold lower than that of the substance before.

As to VV HP (23-37), the IC50 with MHCII (DR) [2] was determined as 2020 nM.

For mCLIP, the IC50 is 162 nM in assay [3]; 7.83 nM in assay [4]; 268 nM in the assay with MHCII (DR) [2]; 429 nM in assay [5]; 3.47 nM in assay [6].

What is called IC50 is the concentration that inhibits the measured activity by half. A lower IC50 goes with inhibition by little substance.
